Reference: publication PMC3134462 (2011)
Where no end group is shown, it is not given here. [ ]: non-standard residue; d: D form. pY = N[C@@H](Cc1ccc(OP(=O)(O)O)cc1)C(=O)O

Key:
[1] = target: T1, DLC-1 peptide (nonphosphorylated) (Homo sapiens); experiment: SPR
T1 chain: CSRLSIYDNVPG

DLC-1 peptide (pY442) = target: T2, DLC-1 peptide (pY442) (Homo sapiens); experiment: SPR
T2 chain: CSRLSI[pY]DNVPG

B1: Tensin2 SH2 domain 1135-1248 (protein)
chain: DTSKFWYKPHLSRDQAIALLKDKDPGAFLIRDSHSFQGAYGLALKVATPPPSAQPWKGDPVEQLVRHFLIETGPKGVKIKGCPSEPYFGSLSALVSQHSISPISLPCCLRIPSK
Kd [1]: ~248 nM
Kd (DLC-1 peptide (pY442)): ~31 nM
